Results published in US20150119341A1.
[ ]: non-standard residue; d: D form. Nle = CCCC[C@H](N)C(=O)O; Orn = NCCC[C@H](N)C(=O)O; Dab = NCC[C@H](N)C(=O)O; Sar = CNCC(=O)O

B1: Ac-Nle-Ala-His-D-Phe-Arg-Sar-Trp-NH2 (peptide)
peptide: Ac-[Nle]AH[dF]R[Sar]W-NH2
SMILES: CCCC[C@H](NC(C)=O)C(=O)N[C@@H](C)C(=O)N[C@@H](Cc1c[nH]cn1)C(=O)N[C@H](Cc1ccccc1)C(=O)N[C@@H](CCCNC(=N)N)C(=O)N(C)CC(=O)N[C@@H](Cc1c[nH]c2ccccc12)C(N)=O
B2: Ac-Nle-Ala-His-D-Phe-Arg-Ala-D-Trp-NH2 (peptide)
peptide: Ac-[Nle]AH[dF]RA[dW]-NH2
SMILES: CCCC[C@H](NC(C)=O)C(=O)N[C@@H](C)C(=O)N[C@@H](Cc1c[nH]cn1)C(=O)N[C@H](Cc1ccccc1)C(=O)N[C@@H](CCCNC(=N)N)C(=O)N[C@@H](C)C(=O)N[C@H](Cc1c[nH]c2ccccc12)C(N)=O
B3: Ac-Nle-Ala-His-D-Phe-Arg-D-Pro-Trp-NH2 (peptide)
peptide: Ac-[Nle]AH[dF]R[dP]W-NH2
SMILES: CCCC[C@H](NC(C)=O)C(=O)N[C@@H](C)C(=O)N[C@@H](Cc1c[nH]cn1)C(=O)N[C@H](Cc1ccccc1)C(=O)N[C@@H](CCCNC(=N)N)C(=O)N1CCC[C@@H]1C(=O)N[C@@H](Cc1c[nH]c2ccccc12)C(N)=O
B4: Ac-Nle-Ala-His-D-Phe-Arg-Pro-D-Trp-NH2 (peptide)
peptide: Ac-[Nle]AH[dF]RP[dW]-NH2
SMILES: CCCC[C@H](NC(C)=O)C(=O)N[C@@H](C)C(=O)N[C@@H](Cc1c[nH]cn1)C(=O)N[C@H](Cc1ccccc1)C(=O)N[C@@H](CCCNC(=N)N)C(=O)N1CCC[C@H]1C(=O)N[C@H](Cc1c[nH]c2ccccc12)C(N)=O
B5: Ac-Nle-Ala-Orn-D-Phe-Arg-Ala-Trp-NH2 (peptide)
peptide: Ac-[Nle]A[Orn][dF]RAW-NH2
SMILES: CCCC[C@H](NC(C)=O)C(=O)N[C@@H](C)C(=O)N[C@@H](CCCN)C(=O)N[C@H](Cc1ccccc1)C(=O)N[C@@H](CCCNC(=N)N)C(=O)N[C@@H](C)C(=O)N[C@@H](Cc1c[nH]c2ccccc12)C(N)=O
B6: Ac-Nle-Ala-Dab-D-Phe-Arg-Ala-Trp-NH2 (peptide)
peptide: Ac-[Nle]A[Dab][dF]RAW-NH2
SMILES: CCCC[C@H](NC(C)=O)C(=O)N[C@@H](C)C(=O)N[C@@H](CCN)C(=O)N[C@H](Cc1ccccc1)C(=O)N[C@@H](CCCNC(=N)N)C(=O)N[C@@H](C)C(=O)N[C@@H](Cc1c[nH]c2ccccc12)C(N)=O

Biological target: recombinant human melanocortin-4 receptor (hMCR-4) in membrane homogenates of HEK-293 cells (human) (UniProt P32245)
Assay: competitive inhibition of [I125]-NDP-alpha-MSH, hMCR-4 HEK-293 membranes

Sequence of recombinant human melanocortin-4 receptor (hMCR-4) in membrane homogenates of HEK-293 cells (human) (P32245 whole entry): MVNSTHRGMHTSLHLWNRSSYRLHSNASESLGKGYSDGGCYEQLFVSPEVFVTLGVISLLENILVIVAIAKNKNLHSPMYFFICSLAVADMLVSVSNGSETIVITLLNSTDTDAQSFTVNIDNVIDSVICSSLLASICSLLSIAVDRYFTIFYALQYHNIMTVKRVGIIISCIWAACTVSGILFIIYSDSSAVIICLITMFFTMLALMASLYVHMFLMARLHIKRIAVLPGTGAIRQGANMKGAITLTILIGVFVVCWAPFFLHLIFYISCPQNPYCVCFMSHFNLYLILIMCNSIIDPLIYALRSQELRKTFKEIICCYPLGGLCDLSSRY

In order of falling Ki:
1. B6  7850 nM
2. B5  7580 nM
3. B3  6200 nM
4. B1  870 nM
5. B4  650 nM
6. B2  215 nM

Biological target: recombinant human melanocortin-1 receptor (hMCR-1a) in membrane homogenates of HEK-293 cells (human) (UniProt Q01726)
Assay: competitive inhibition of [I125]-NDP-alpha-MSH, hMCR-1 HEK-293 membranes

Sequence of recombinant human melanocortin-1 receptor (hMCR-1a) in membrane homogenates of HEK-293 cells (human) (Q01726 whole entry): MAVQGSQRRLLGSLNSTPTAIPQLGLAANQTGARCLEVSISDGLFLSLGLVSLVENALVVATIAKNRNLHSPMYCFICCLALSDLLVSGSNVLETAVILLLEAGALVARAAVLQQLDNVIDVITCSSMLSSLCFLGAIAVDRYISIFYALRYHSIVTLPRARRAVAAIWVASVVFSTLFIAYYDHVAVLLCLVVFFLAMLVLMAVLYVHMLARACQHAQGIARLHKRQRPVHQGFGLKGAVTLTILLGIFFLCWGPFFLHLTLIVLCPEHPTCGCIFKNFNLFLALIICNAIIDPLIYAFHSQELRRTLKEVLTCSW

In order of falling Ki:
1. B3  14 nM
2. B2  7 nM
3. B1  2 nM
4. B4  2 nM
5. B6  2 nM
6. B5  0.3 nM
